Measured values from the supplement of paper PMC12764529.
± gives the half width of the 95% confidence interval.

What was measured:
[1] = folding stability dG unfold (combined trypsin and chymotrypsin); higher = more stable
Method in brief: (§1)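 Unfolding free energy was derived, per protease or combined, by relating Bayesian-fitted K50 values from sequencing counts to a sequence-predicted unfolded-state K50 and a shared folded-state K50. The underlying digests exposed cysteine-free mini-proteins under 80 residues, in a PA-tagged cDNA display construct, to trypsin and chymotrypsin at 11 threefold-diluted concentrations and to a no-protease condition. A filter kept only designs with AlphaFold2 dimer inter-PAE above 15.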

[2] = folding stability dG unfold from trypsin proteolysis; higher = more stable
Method in brief: as §1

[3] = folding stability dG unfold from chymotrypsin proteolysis; higher = more stable
Method in brief: as §1

| Sequence | folding stability dG unfold [1] [kcal/mol] | folding stability dG unfold [2] [kcal/mol] | folding stability dG unfold [3] [kcal/mol] |
| --- | --- | --- | --- |
| SAGGSAGGSAGGKFEIVEVKEEYTLPNGKKVKVFTVKNKDTGKEITFIVDSNGNLKPYPSAGGSAGGSAGGS [r10_1123_TrROS_Hall] | 2.65 ± 0.11 | 2.72 ± 0.13 | 2.602 ± 0.025 |
| SAGGSAGGSAGGKFKIVKVEKVKNENGEEYVRVYLYNKDGKPVKEFTMSKEELEKLLKELSAGGSAGGSAGG [r7_891_TrROS_Hall] | 2.88 ± 0.15 | 2.72 ± 0.11 | 2.96 ± 0.051 |
| SAGGSAGGSAGGKFKPGQTIKIKLKVKVKVNGKEYEFEKELEIKIKPKVTMSEEELKKKSAGGSAGGSAGGS [r10_175_TrROS_Hall] | 1.39 ± 0.26 | 0.169 ± 0.16 | 2.12 ± 0.09 |
| SAGGSAGGSAGGKGKKVTIEIHFFFKSPQEMKHWANTLAKELPGLDVEIKVEWIPLEDMKSAGGSAGGSAGG [r7_465_TrROS] | 2.75 ± 0.29 | 2.06 ± 0.14 | 3.26 ± 0.14 |
| SAGGSAGGSAGGKIIEVKEENGEVYLLVEVDGKKEVIKFPKGAKLEEIKVDVKEVKVLKPSAGGSAGGSAGG [r7_373_TrROS_Hall] | 0.539 ± 0.12 | -0.0364 ± 0.065 | 0.563 ± 0.1 |
| SAGGSAGGSAGGKIKVPPGAIILVETESGEWKEIKPGDEIELKNSKVYIFNENGEKIELPSAGGSAGGSAGG [r7_54_TrROS_Hall] | 1.28 ± 0.18 | 0.82 ± 0.11 | 1.28 ± 0.092 |
| SAGGSAGGSAGGKIVIELPKELEGLTAEELAELLKKEFGEKGLKVTVVEKDGKLYLVIDSAGGSAGGSAGGS [r10_579_TrROS_Hall] | 3.5 ± 0.24 | 3.43 ± 0.25 | 3.34 ± 0.15 |
| SAGGSAGGSAGGKIVKIEFDKETKEIKITLPNGKKITISKEDLKNMKIEIKVYPKKKKKKSAGGSAGGSAGG [r7_98_TrROS_Hall] | 1.8 ± 0.35 | 0.774 ± 0.093 | 2.45 ± 0.1 |
| SAGGSAGGSAGGKKIIIVVPKEEMTEEELKKLIEELPPGEEIEIEIIVVPPPPPPPKEKKSAGGSAGGSAGG [r7_979_TrROS_Hall] | 1.45 ± 0.27 | 0.385 ± 0.077 | 1.92 ± 0.23 |
| SAGGSAGGSAGGKKITIKNENGETFTVTEIVKYDEETKEFYIKVEVNGKTYLFKVNLEDLSAGGSAGGSAGG [r7_236_TrROS_Hall] | 3.2 ± 0.05 | 1.81 ± 0.059 | 3.572 ± 0.024 |
| SAGGSAGGSAGGKKKIKVKVTVYNKNGKPVAEFEFEFETEEEALEAAKKLGLPVRVEKESAGGSAGGSAGGS [r10_958_TrROS_Hall] | 2.28 ± 0.15 | 1.71 ± 0.11 | 2.57 ± 0.069 |
| SAGGSAGGSAGGKKPKPIKVKVLKYYKNGKIEEKEYTFESPEDLEEFIKANPEVKVLEISSAGGSAGGSAGG [r11_802_TrMRF] | 4.58 ± 0.17 | 3.04 ± 0.34 | 4.76 ± 0.082 |
| SAGGSAGGSAGGKKTIEIMIFYDPGDPERAKEKARDIANTLQARFPNVTVKITVFRFPNSAGGSAGGSAGGS [r10_223_TrROS] | 2.25 ± 0.14 | 1.87 ± 0.074 | 2.5 ± 0.048 |
| SAGGSAGGSAGGKKTLKLPVKITPVKDGLLITLPDGTPILVPKNVTVETTDTTAYVTIGSAGGSAGGSAGGS [r10_305_TrMRF] | 0.0124 ± 0.2 | 0.21 ± 0.067 | -0.375 ± 0.28 |
| SAGGSAGGSAGGKKTVKIEIEMPVEELLKKLKFPEGITSVRIIERDENGYLRIEIEVKLSAGGSAGGSAGGS [r10_352_TrROS_Hall] | 1.31 ± 0.23 | 1.55 ± 0.05 | 1.32 ± 0.078 |
| SAGGSAGGSAGGKKVIKVKVRIYPVDGSFEEKEVEAESLEELLEKVLEETHPESLIFIGSAGGSAGGSAGGS [r10_145_TrMRF] | 0.59 ± 0.16 | 0.912 ± 0.086 | 0.14 ± 0.067 |
| SAGGSAGGSAGGKKYEITRILSIEETEDGRIRILIETKTGIIEFDDISEIPPEIRELLGSAGGSAGGSAGGS [r10_748_TrMRF] | 2.73 ± 0.055 | 2.82 ± 0.075 | 2.668 ± 0.021 |
| SAGGSAGGSAGGKKYKITVPFKTKDGSGKPITSNFGKKKLEEILKKHPELKPAIEKALKKSAGGSAGGSAGG [r7_637_TrMRF] | 0.771 ± 0.29 | -0.163 ± 0.33 | 1.37 ± 0.22 |
| SAGGSAGGSAGGKKYKPVKKIKVNGKTYTIIKKDGKYIIYDEKTKKKIVIKPGEKIKIKSAGGSAGGSAGGS [r10_559_TrROS_Hall] | 1.83 ± 0.34 | 0.621 ± 0.045 | 2.21 ± 0.034 |
| SAGGSAGGSAGGKLPPGQPIKATIEIYIFMISYDGGEPKIHEFPITIEHTFRLPDPDALSAGGSAGGSAGGS [r10_745_TrROS] | 3.42 ± 0.17 | 2.14 ± 0.086 | 3.9 ± 0.091 |
| SAGGSAGGSAGGKLTIVIEGMSEEEVKALAEALRKAGLEIEVTVVPVEVKEPELPEEEKSAGGSAGGSAGGS [r10_361_TrROS_Hall] | 2.04 ± 0.12 | 1.57 ± 0.081 | 2.29 ± 0.053 |

| Sequence | folding stability dG unfold [1] [kcal/mol] | folding stability dG unfold [2] [kcal/mol] | folding stability dG unfold [3] [kcal/mol] |
| --- | --- | --- | --- |
| SAGGSAGGSAGGKPEIKLVEVENEDGSKLIKIEVNGKTIIIENVKTEEELRELLKKLGIESAGGSAGGSAGG [r7_91_TrROS_Hall] | 2.64 ± 0.25 | 2.08 ± 0.14 | 2.66 ± 0.17 |
| SAGGSAGGSAGGKPFKVLSVEPLEIGDKKYLRVRFEDGRVYEFPVSFDFGPDGNNVLPVESAGGSAGGSAGG [r7_931_TrMRF] | 2.37 ± 0.043 | 1.93 ± 0.041 | 2.59 ± 0.045 |
| SAGGSAGGSAGGKPITIKLEETGETATIDEDNGIITITNKDGSKYQITFKDGKLIIKKISAGGSAGGSAGGS [r10_568_TrROS_Hall] | 2.79 ± 0.097 | 1.99 ± 0.076 | 3.1 ± 0.056 |
| SAGGSAGGSAGGKPKKVVIYIELTPEQEEAIKKGKSLEEVVEELIKEAEKKGLEVEIVGSAGGSAGGSAGGS [r10_890_TrROS_Hall] | 1.62 ± 0.14 | 1.2 ± 0.029 | 1.93 ± 0.067 |
| SAGGSAGGSAGGKPKPIKIEVYYDEKTGKLLVKVTLPNGKPVTLEFDDIGDIDEVKKAAGSAGGSAGGSAGG [r7_41_TrMRF] | 2.44 ± 0.18 | 1.36 ± 0.092 | 2.97 ± 0.16 |
| SAGGSAGGSAGGKPKTIRIKVYNEETGEVVTLEFPEGMSLEEVKKLLEALPNLKVVEIEPSAGGSAGGSAGG [r7_624_TrROS_Hall] | 4.45 ± 0.24 | 4.79 ± 0.41 | 3.62 ± 0.11 |
| SAGGSAGGSAGGKPKVILLEGIKKIEVKDGKVTIEADEPVLLVIDEDGNVHIYRLPKEDLSAGGSAGGSAGG [r7_29_TrROS_Hall] | 1.35 ± 0.11 | 1.03 ± 0.07 | 1.38 ± 0.099 |
| SAGGSAGGSAGGKPTITITVELEDGYKATFEYNEETDKITVKIFNKNGELVEEFEFEIKSAGGSAGGSAGGS [r10_1044_TrROS_Hall] | 2.87 ± 0.21 | 1.81 ± 0.12 | 3.24 ± 0.21 |
| SAGGSAGGSAGGKPYIITLPNMKREVVFENSALVEFEDGSVIAAFENNVIVFFPVPEDALSAGGSAGGSAGG [r7_29_TrMRF] | 0.578 ± 0.12 | 0.121 ± 0.042 | 0.786 ± 0.093 |
| SAGGSAGGSAGGKPYVIVPVTVRFTIDIPKDHPLLKELDINPEDVKIEFEFSFLGEVPASAGGSAGGSAGGS [r10_82_TrMRF] | 2.95 ± 0.12 | 2.66 ± 0.096 | 2.97 ± 0.089 |
| SAGGSAGGSAGGKTIVIEVKEEDIEEIIEAAKKAGADEVIIYNKKTNKKYKIKDGKIEPVSAGGSAGGSAGG [r7_564_TrROS_Hall] | 1.81 ± 0.1 | 1.34 ± 0.032 | 2.02 ± 0.045 |
| SAGGSAGGSAGGKTIVLLDEETNELVTIEIDEETGEVKITVVRLKDGKLETKTETIKLPSAGGSAGGSAGGS [r10_756_TrROS_Hall] | 2.07 ± 0.19 | 1.93 ± 0.091 | 2.23 ± 0.21 |
| SAGGSAGGSAGGKTLKLTLTLKVEVKETVTTTTADGTTEERPVKEVEVKLTATIDLSDLSAGGSAGGSAGGS [r10_355_TrROS_Hall] | 4 ± 0.3 | 3.04 ± 0.24 | 4.38 ± 0.2 |
| SAGGSAGGSAGGKTVVLFVDPKTKKVYILYPDGKIETLSPEELKNKPIIVKPVKLHPKAGSAGGSAGGSAGG [r7_98_TrMRF] | 1.56 ± 0.053 | 0.817 ± 0.024 | 1.86 ± 0.053 |
| SAGGSAGGSAGGKTYTAEELRKKLPPGAVIRLKNGKKYEIKEGDKIKKGDKIEIVPKKDLSAGGSAGGSAGG [r7_507_TrROS_Hall] | 0.18 ± 0.13 | -0.344 ± 0.32 | 0.369 ± 0.14 |
| SAGGSAGGSAGGKVGPGTTVTIVEVEVVGSKINPLGLVTTDFVVKKVEVVEVEKGADLKSAGGSAGGSAGGS [r10_826_JUSTAS] | 0.0651 ± 0.12 | 0.487 ± 0.041 | -0.775 ± 0.41 |
| SAGGSAGGSAGGKVHPDQPVKLRLTFTVSGVYYDENKPRVETKPVTVEFTALAPDEDALSAGGSAGGSAGGS [r10_745_TrMRF] | 0.185 ± 0.07 | 0.0543 ± 0.12 | 0.208 ± 0.17 |
| SAGGSAGGSAGGKVIDSEEFRNNFPSGGVLVDNNGNLYLVGNNYPIDPNQPFLYVSPDEISAGGSAGGSAGG [r7_507_TrMRF] | 1.23 ± 0.22 | 0.959 ± 0.086 | 1.56 ± 0.17 |
| SAGGSAGGSAGGKVIVKEITINEDGTVTIKGEIFDENGELIAEAEFKFRLGDGGPIEFESAGGSAGGSAGGS [r10_484_TrMRF] | 2.3 ± 0.16 | 2.18 ± 0.18 | 2.462 ± 0.021 |
| SAGGSAGGSAGGKVTKVILYPLPGGKVRLIIYGDDGKPYFFETSFEDLKNFPNIPFIILPSAGGSAGGSAGG [r7_238_TrMRF] | 2.11 ± 0.073 | 2.19 ± 0.069 | 2.27 ± 0.049 |
